What was measured:
[1] = biological target: WT SARS-CoV-2 spike protein, plate-coated (MSD V-Plex) (SARS-CoV-2) (UniProt P0DTC2); assay: MSD competition vs labelled ACE2
[2] = biological target: full length wild type SARS-CoV-2 spike glycoprotein on pseudotyped lentivirus (SARS-CoV-2) (UniProt P0DTC2); assay: cell-based or functional assay
[3] = biological target: SARS-CoV-2 spike RBD-His (R&D Systems, cat #10500-CV) (SARS-CoV-2) (UniProt P0DTC2); assay: SPR
[4] = biological target: SARS-CoV-2 spike RBD-His (R&D Systems, cat #10500-CV) (SARS-CoV-2) (UniProt P0DTC2); assay: SPR, 1:1 model

For Bamlanivimab + Etesevimab, the IC50 [1] was 70 pM.

Work on REGEN-COV yielded a Pseudovirus Neutralization (IC50, nM) [2] of 0.09 nM, a Pseudovirus neutralization IC50 [2] of 90 pM and an IC50 [1] of 70 pM.

Substance REGN10933 (Casirivimab) (antibody) has a Kd [3] of 70.8 pM and a Kd [4] of 70.8 pM.

REGN10987 (Imdevimab) (antibody) gave a Kd [3] of 86.9 pM and a Kd [4] of 86.9 pM.

Work on Sotrovimab (antibody) yielded a Pseudovirus Neutralization (IC50, nM) [2] of 0.11 nM.
